Our source for the Fold diff values is patent US20220332804A1 (CSL INNOVATION, published 2022).

Positions count from the first letter of the chain named.

Test in all cases: SPR, KD relative to WT C2;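 further: biacore SPR at 37 °C, anti-C2 mAbs captured via immobilised goat anti-human IgG, C2 alanine or serine surface mutants as analytes, 1:1 model fitted, double-referenced sensograms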
(In SPR one partner is held on a chip, and binding of the other changes the refractive index at the surface.)

The target in one test is T1, human C2 S713A (human, UniProt P06681 21-752).
T1 sequence: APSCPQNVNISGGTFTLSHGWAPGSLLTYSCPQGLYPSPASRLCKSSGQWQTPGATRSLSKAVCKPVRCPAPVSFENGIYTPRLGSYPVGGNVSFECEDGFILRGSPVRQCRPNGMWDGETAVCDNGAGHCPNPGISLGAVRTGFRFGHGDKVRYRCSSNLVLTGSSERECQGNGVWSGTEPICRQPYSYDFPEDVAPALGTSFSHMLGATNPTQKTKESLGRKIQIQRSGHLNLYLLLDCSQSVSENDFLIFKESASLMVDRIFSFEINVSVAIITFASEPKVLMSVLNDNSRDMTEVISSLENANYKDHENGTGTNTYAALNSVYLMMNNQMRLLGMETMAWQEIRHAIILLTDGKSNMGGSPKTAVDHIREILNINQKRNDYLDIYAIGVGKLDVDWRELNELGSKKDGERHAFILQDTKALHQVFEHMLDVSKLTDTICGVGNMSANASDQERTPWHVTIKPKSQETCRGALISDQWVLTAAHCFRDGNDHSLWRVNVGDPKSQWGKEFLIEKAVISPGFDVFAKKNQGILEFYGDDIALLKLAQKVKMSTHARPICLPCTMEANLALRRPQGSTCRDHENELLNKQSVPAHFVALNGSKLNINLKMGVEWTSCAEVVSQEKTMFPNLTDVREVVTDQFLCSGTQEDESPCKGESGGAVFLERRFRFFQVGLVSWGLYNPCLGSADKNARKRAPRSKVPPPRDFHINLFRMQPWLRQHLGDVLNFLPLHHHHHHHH

In a further test the target is T2, human C2 K329A (human, UniProt P06681 21-752).
T2 sequence: T1 sequence with K309A, A693S

The next test concerns the target T3, human C2 S456A (human, UniProt P06681 21-752).
T3 sequence: T1 sequence with S436A, A693S

A further test has as its target T4, human C2 G466A (human, UniProt P06681 21-752).
T4 sequence: T1 sequence with G446A, A693S

B1: RF16-226 (antibody, human IgG4 S228P, lambda)
heavy: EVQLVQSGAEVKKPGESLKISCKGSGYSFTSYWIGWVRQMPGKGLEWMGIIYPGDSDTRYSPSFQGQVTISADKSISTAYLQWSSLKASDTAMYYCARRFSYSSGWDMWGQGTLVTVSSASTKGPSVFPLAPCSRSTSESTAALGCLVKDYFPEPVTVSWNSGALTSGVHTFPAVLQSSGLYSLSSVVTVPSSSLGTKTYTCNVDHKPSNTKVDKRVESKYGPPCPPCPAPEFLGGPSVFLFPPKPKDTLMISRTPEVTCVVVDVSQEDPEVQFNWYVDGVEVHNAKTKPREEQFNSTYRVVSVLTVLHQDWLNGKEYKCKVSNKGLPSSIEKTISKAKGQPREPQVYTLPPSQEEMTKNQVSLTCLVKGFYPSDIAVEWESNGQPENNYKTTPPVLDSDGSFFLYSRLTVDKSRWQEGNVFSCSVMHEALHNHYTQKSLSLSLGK
light: SYELTQPPSVSVSPGQTARITCSGDALTSKYVAWYQQKSGLAPLLVIYEDTRRPSGIPAKFSGSSSGSVATLTISGAHGDDEADYYCYSTDASGHQRVFGGGTKLTVLSQPKAAPSVTLFPPSSEELQANKATLVCLISDFYPGAVTVAWKADGSPVKAGVETTKPSKQSNNKYAASSYLSLTPEQWKSHRSYSCQVTHEGSTVEKTVAPTECS
notes: pH-dependent anti-C2 antibody from a phage display library; also called WT
B1: the Fold diff amounted to 2 fold with human C2 S713A, 3 fold in the test with human C2 K329A, 7 fold with human C2 S456A and 3 fold with human C2 G466A.
